Source: patent CN115232213A (HEFEI TIANGANG IMMUNOLOGY PHARMACEUTICAL CO LTD, dated 2022)

Target: T1, TROP2蛋白 (TROP2 protein, SEQ ID NO:27) expressed on transduced cells (human, UniProt P09758 27-323)
T1 construct: also called CHO-K1-TROP2细胞; A375-TROP2细胞
T1 sequence: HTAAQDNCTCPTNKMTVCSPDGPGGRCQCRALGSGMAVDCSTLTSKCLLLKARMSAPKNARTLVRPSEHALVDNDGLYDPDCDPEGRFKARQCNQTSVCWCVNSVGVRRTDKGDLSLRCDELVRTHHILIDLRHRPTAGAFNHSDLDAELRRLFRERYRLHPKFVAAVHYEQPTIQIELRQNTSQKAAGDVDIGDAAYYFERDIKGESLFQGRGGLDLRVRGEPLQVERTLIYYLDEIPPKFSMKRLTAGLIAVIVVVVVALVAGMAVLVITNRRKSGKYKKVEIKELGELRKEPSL
Experiment: flow cytometry on CHO-K1-TROP2 cells, Alexa-647 rat anti-human Fc detection

B1: CD3×TROP2双特异性抗体 (CD3×TROP2 bispecific antibody) (bispecific antibody, human IgG1, kappa, L234A L235A)
chain: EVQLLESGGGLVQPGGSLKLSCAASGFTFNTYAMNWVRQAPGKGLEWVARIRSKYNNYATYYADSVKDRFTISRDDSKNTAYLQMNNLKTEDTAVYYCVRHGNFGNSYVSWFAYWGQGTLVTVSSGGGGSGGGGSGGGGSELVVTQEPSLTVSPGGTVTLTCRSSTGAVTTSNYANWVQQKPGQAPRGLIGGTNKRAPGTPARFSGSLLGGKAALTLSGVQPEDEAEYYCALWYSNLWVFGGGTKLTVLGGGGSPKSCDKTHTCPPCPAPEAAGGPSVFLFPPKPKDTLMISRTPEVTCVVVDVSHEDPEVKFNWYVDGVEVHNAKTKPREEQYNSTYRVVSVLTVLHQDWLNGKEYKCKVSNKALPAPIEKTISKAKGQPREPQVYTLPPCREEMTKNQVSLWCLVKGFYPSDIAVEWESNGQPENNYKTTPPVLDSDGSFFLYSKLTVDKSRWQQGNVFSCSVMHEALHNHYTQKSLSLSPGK
heavy: QVQLQQSGSELKKPGASVKVSCKASGYTFTNYGMNWVKQAPGQGLKWMGWINTYTGEPTYTDDFKGRFAFSLDTSVSTAYLQISSLKADDTAVYFCARGGFGSSYWYFDVWGQGSLVTVSSASTKGPSVFPLAPSSKSTSGGTAALGCLVKDYFPEPVTVSWNSGALTSGVHTFPAVLQSSGLYSLSSVVTVPSSSLGTQTYICNVNHKPSNTKVDKKVEPKSCDKTHTCPPCPAPEAAGGPSVFLFPPKPKDTLMISRTPEVTCVVVDVSHEDPEVKFNWYVDGVEVHNAKTKPREEQYNSTYRVVSVLTVLHQDWLNGKEYKCKVSNKALPAPIEKTISKAKGQPREPQVCTLPPSREEMTKNQVSLSCAVKGFYPSDIAVEWESNGQPENNYKTTPPVLDSDGSFFLVSKLTVDKSRWQQGNVFSCSVMHEALHNHYTQKSLSLSPGK
light: DIQLTQSPSSLSASVGDRVSITCKASQDVSIAVAWYQQKPGKAPKLLIYSASYRYTGVPDRFSGSGSGTDFTLTISSLQPEDFAVYYCQQHYITPLTFGAGTKVEIKRTVAAPSVFIFPPSDEQLKSGTASVVCLLNNFYPREAKVQWKVDNALQSGNSQESVTEQDSKDSTYSLSSTLTLSKADYEKHKVYACEVTHQGLSSPVTKSFNRGEC
notes: Fc carries L234A/L235A; also called CD3×TROP2重组双特异抗体; CD3×TROP2抗体
B1: binds.
